Assay results from the nanobody polyreactivity screen of Harvey et al. (2022).

Experiment: yeast display, Sf9 membrane polyspecificity reagent, FACS + sequencing; frameworks hold sequencing errors
In short: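 After 36–48 hours of galactose induction, yeast (Saccharomyces cerevisiae BJ5465) displaying a synthetic nanobody library were stained at 4 °C for 1 hour with 10% biotinylated, detergent-solubilized Sf9 membrane reagent. Streptavidin microbeads enriched the stained cells before FACS sorting into low and high (top ~1%) gates on anti-HA and streptavidin fluorescence. Each clone's polyreactivity label reflects its gate of origin.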

Sequence: QVQLVESGGGLVQAGGSLLLSCAASGIIFSSYVMGWYRQAHGKERELVAAISKSGARPSYADSVKGRFTISRDNAKNTVYLQMNSLKPEDTAVYYCAAAWHTAYWVGSDSQGGGYWGQGTQVTVSS
- polyreactivity (PSR sort gate): low polyreactivity

Sequence: QVQLVESGGGLVQAGGSLLLSCAASGLTFERYVMVWYRQAPGKERELVSSISRSGSTYYADSVKGRFTISRDNAKNTVYLQMNSLKPEDTAVYYCNADRFWFHWVYSRYHYDYWGQGTQVTVSS
- polyreactivity (PSR sort gate): high polyreactivity

Sequence: QVQLVESGGGLVQAGGSLLLSCAASGLTFTDNAMGWSRQAPGKERELVAAISQSGGRTFYADSVKGRFTISRDNAKNTVYLQINSLKPEDPAVYYCNSRRGSVAKYGYLGQGTQVTVSS
- polyreactivity (PSR sort gate): high polyreactivity

Sequence: QVQLVESGGGLVQAGGSLLLSCAASGRIFIDYAMGLYRQAPGKERELVATISESGGTTYYADSVKGRFTISRDNGKNTVYLQMNSLKPEDTAVYYCAAKRLCRPYDYWGQGTQVTVSS
- polyreactivity (PSR sort gate): low polyreactivity

Sequence: QVQLVESGGGLVQAGGSLLLSCAASGRIFRSYAMGWYRQAPGKERELVAAISSGGSTKYADSVKGRFTISRDNAKNTVYLQMNSLKPVDTAVYYCAASRTRLGTSGTSYGAAYDYWGQGTQVTVSS
- polyreactivity (PSR sort gate): high polyreactivity

Sequence: QVQLVESGGGLVQAGGSLLLSCAASGRIINYYAMGWYRQAPGKEREFVAAITRSGGRTYYADSVKGRFTISRDNAKNTVYLQMNSLKPEDTAVYYCAAPYGTYAYDYWGQGTQVTVSS
- polyreactivity (PSR sort gate): high polyreactivity

Sequence: QVQLVESGGGLVQAGGSLLLSCAASGRTFTGYAMGGYRQAPVKERELVAAISASGGSTYYADSVKGRFTISRDNAKNTVYLQMNSLIPEDTAVYYCAAETWYSVLWEEGYDYWGQGTQVTVSS
- polyreactivity (PSR sort gate): low polyreactivity

Sequence: QVQLVESGGGLVQAGGSLLLSCAASGSIFYNYAMGWYRQAPGKERELVAAISQSGGSTRYADSVKGRFTISRDNAKNTVYLQMNSLKPEDTAVYYCAASRRKGQGSAGFGYWGQGTQVTVSS
- polyreactivity (PSR sort gate): high polyreactivity

Sequence: QVQLVESGGGLVQAGGSLLLSCAASGSTFAWYAMGWNRQAPGKERELVAAISRTGRTYYADSVKGRFTISRDNAKNTVYLEMNSLKPEDTAVYYCAARIERFYRDQRYDYWGQGTQVTVSS
- polyreactivity (PSR sort gate): high polyreactivity

Sequence: QVQLVESGGGLVQAGGSLLLSCAASGSTFGSYDMGWYRQAPGKERELVATISTSGSGTYYADSVKGRFTISRDNSKNTVYLQMNSLKPEDTAFYDCAKDPADGRRFRYGYWGQGTQVTVSS
- polyreactivity (PSR sort gate): low polyreactivity

Sequence: QVQLVESGGGLVQAGGSLLLSCAASGSTFGYNTMGWYRQAPGKERELVAAINYSGGRTYYADSVKGRFTISRDYAMNTVYLQMNSQKPEDTAVYYCNALSYPSRVYDAYDYWGQGTQVTVSS
- polyreactivity (PSR sort gate): high polyreactivity

Sequence: QVQLVESGGGLVQAGGSLLLSCAPSGITFVWYAMVWYRQAPGKERELVAAISRGGSTYYADSVKGRFTISRDNAKNTVYLQMNSLKPVDTAVYYCAARAPYIQQSVHISPRYYYSGQGTQVTVSS
- polyreactivity (PSR sort gate): high polyreactivity

Sequence: QVQLVESGGGLVQAGGSLLLSSAASGFTFGNNDMGWYRKSHGKERELVDAITKRGSSTYYADSVKGRFTISRDNAKNTVYLQMNSLKPEDTAVYHCAASWLGASGIRYDYWGQGTLVTVSS
- polyreactivity (PSR sort gate): high polyreactivity

Sequence: QVQLVESGGGLVQAGGSLLLSSAASGSTLVYYTMGRYIPAPGKERELVAGITGSGGSTYYADSVKGRFTISRDNAKNTVYLQMNILIPEDTAVYYCAKRGFRSYHYIRGVYYWGQGTQVTVSS
- polyreactivity (PSR sort gate): low polyreactivity

Sequence: QVQLVESGGGLVQAGGSLPLSCAASGFIFPGYAMGWYRQAPGKERELVAVISSRGGSTKYADSVKGRFTISRDNANYSVYLQMNSLNPEDTAVYYCAAARAPRKYDSWGQGTQVTVSS
- polyreactivity (PSR sort gate): high polyreactivity

Sequence: QVQLVESGGGLVQAGGSLPLSCAASGFIFTSNAMGWYRQAPGKERELVASISGNGGRTNYADSVKGRFTISRDNAKNTVYLQMNSLKPDDTAVYYCAARVRRFLNRVSRYPHDYWGQGTQVTVSS
- polyreactivity (PSR sort gate): high polyreactivity

Sequence: QVQLVESGGGLVQAGGSLPLSCAASGFIYGGNAMGWYRQAPGKERELVAAISKSGGRTYYADSVKGRFTISRDNAKNTVYLQMNSLKPEDTAVYYCAAVPGRTAEDYGEDYWGQGTEVTVSS
- polyreactivity (PSR sort gate): high polyreactivity
